According to patent publication US20240182575A1:

How the values were obtained:
[1] = target: HuCTLA4-HuIgG1 (fusion protein of the extracellular part of human CD152 and human Fc gamma 1, CTLA4-Ig) (human) (UniProt P16410); experiment: alphascreen, CTLA4-Fc; blocked ligand biotinylated CD80-Fc
[2] = target: human CTLA4 (Y201 mutated to valine) on stably transfected CHO-K1 cells (human) (UniProt P16410); experiment: FACS competition, human CTLA4 CHO cells; blocked ligand HuB7.1/Fc
[3] = target: rhB7-H2-Fc (fusion protein of the extracellular part of human B7-H2 (ICOSL) and mouse Fc gamma 1, R&D Systems Cat #165-B7) (human; mouse) (UniProt O75144); experiment: competition ELISA, coated B7-H2; competes with ICOS-biotin
Sequence of rhB7-H2-Fc (fusion protein of the extracellular part of human B7-H2 (ICOSL) and mouse Fc gamma 1, R&D Systems Cat #165-B7) (human; mouse) (O75144 other isoform, or with tags, fused parts or gaps limits assumed): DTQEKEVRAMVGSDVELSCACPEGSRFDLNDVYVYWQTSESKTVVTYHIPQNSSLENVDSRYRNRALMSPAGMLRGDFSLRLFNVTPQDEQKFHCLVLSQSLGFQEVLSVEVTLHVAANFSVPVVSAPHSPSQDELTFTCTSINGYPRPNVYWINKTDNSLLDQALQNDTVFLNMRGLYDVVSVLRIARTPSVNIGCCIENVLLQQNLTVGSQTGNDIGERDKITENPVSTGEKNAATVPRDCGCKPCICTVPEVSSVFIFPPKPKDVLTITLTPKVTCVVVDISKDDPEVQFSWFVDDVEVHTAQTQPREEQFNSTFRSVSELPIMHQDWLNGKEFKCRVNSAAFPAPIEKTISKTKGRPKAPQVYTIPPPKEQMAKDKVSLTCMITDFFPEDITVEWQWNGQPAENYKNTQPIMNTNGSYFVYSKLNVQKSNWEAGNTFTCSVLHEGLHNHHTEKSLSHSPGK

Sequence of HuCTLA4-HuIgG1 (fusion protein of the extracellular part of human CD152 and human Fc gamma 1, CTLA4-Ig) (human) (P16410 36-161 limits assumed): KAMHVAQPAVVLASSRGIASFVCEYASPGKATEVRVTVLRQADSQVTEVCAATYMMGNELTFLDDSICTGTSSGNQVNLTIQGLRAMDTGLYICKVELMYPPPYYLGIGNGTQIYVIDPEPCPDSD
Sequence of human CTLA4 (Y201 mutated to valine) on stably transfected CHO-K1 cells (human) (P16410 other isoform, or with tags, fused parts or gaps, change not shown): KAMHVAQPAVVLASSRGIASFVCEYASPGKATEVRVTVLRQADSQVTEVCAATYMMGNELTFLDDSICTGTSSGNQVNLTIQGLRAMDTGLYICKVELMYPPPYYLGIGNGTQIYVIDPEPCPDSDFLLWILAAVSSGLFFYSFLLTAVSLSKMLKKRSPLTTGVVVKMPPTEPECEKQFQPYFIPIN
Sequence of cold ICOS (receptor) (Q9Y6W8 21-140): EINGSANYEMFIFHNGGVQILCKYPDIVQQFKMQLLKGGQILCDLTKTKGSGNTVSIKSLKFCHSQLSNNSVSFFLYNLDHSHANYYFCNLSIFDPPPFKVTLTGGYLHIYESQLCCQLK

Row | Substance | IC50 (read off the curve) [1] | IC50 (read off the curve) [2] | IC50 (read off the curve) [3]
1 | BNI3 fab | 2 nM |  | 
2 | Mouse-anti-human CTLA4 clone BNI3 (antibody) | 0.3 nM | 10 nM | 
3 | cold ICOS (receptor) |  |  | 20 nM
